Reference: paper PMC4513076

How the values were obtained:
[1] = molecular target: T1, IolR (Salmonella enterica) (UniProt A0A0H3NJ61); assay: EMSA
T1 sequence: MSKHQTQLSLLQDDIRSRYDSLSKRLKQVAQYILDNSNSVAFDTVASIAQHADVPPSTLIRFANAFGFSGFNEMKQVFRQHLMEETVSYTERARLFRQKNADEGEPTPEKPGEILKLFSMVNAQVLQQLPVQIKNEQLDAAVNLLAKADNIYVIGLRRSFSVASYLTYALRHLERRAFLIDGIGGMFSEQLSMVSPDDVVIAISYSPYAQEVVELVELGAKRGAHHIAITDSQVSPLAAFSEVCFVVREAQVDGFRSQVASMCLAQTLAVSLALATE

[2] = molecular target: IolR, myo-inositol catabolism repressor (RpiR-like transcriptional repressor) of Salmonella enterica (Salmonella enterica serovar Typhimurium LT2); assay: SEC
IolR = IolR (Salmonella enterica, UniProt A0A0H3NJ61 1-277); assay: EMSA

## CATACCGGTTTCCCTTACACAGAAGTGACCGGATAATTTTAAACGCTTTCGCTATTTTATGCTGTGACGTTTCCCGGATGTTGCGTTTTTCCTGCCAGATAGCGCGTTTTGAAACGGGTGAAATGTTCACCTAAACTGGTTGCCGCCTCG (double strand) [Ppat (150 nt)]
[1]
  binding: binds

## CATGCATGATACTCTAATAGAACGAAAATTTCGTAAATAACCATATTAGCACAAATGAACTGAACATACAGTTAACAACATTCAAATTGCGCTGTGGTTACCTTCAGTACAGAATTTGCTGGCGGGCTGGGTTCTGAGCAATCTGAATCTGACCGCATAAATGCGACAGGATCAG (double strand) [PiolR (175 nt)]
[1]
  binding: binds

## IolR, myo-inositol catabolism repressor (RpiR-like transcriptional repressor) of Salmonella enterica (natural protein)
[2]
  stoichiometry N: 4

B1: Ppat45 (dsDNA)
DNA 1: CAACCAGTTTAGGTGAACATTTCACCCGTTTCAAAACGCGCTATCT
DNA 2: AGATAGCGCGTTTTGAAACGGGTGAAATGTTCACCTAAACTGGTTG
IolR
  binding result: binds
